# B1: Fructose-1,6-bisphosphatase isozyme 2 (Homo sapiens), O00757 (parent)
# chain: MTDRSPFETDMLTLTRYVMEKGRQAKGTGELTQLLNSMLTAIKAISSAVRKAGLAHLYGIAGSVNVTGDEVKKLDVLSNSLVINMVQSSYSTCVLVSEENKDAIITAKEKRGKYVVCFDPLDGSSNIDCLASIGTIFAIYRKTSEDEPSEKDALQCGRNIVAAGYALYGSATLVALSTGQGVDLFMLDPALGEFVLVEKDVKIKKKGKIYSLNEGYAKYFDAATTEYVQKKKFPEDGSAPYGARYVGSMVADVHRTLVYGGIFLYPANQKSPKGKLRLLYECNPVAYIIEQAGGLATTGTQPVLDVKPEAIHQRVPLILGSPEDVQEYLTCVQKNQAGS
# B2: DNA topoisomerase 3-beta-1 (Homo sapiens), O95985 (parent)
# chain: MKTVLMVAEKPSLAQSIAKILSRGSLSSHKGLNGACSVHEYTGTFAGQPVRFKMTSVCGHVMTLDFLGKYNKWDKVDPAELFSQAPTEKKEANPKLNMVKFLQVEGRGCDYIVLWLDCDKEGENICFEVLDAVLPVMNKAHGGEKTVFRARFSSITDTDICNAMACLGEPDHNEALSVDARQELDLRIGCAFTRFQTKYFQGKYGDLDSSLISFGPCQTPTLGFCVERHDKIQSFKPETYWVLQAKVNTDKDRSLLLDWDRVRVFDREIAQMFLNMTKLEKEAQVEATSRKEKAKQRPLALNTVEMLRVASSSLGMGPQHAMQTAERLYTQGYISYPRTETTHYPENFDLKGSLRQQANHPYWADTVKRLLAEGINRPRKGHDAGDHPPITPMKSATEAELGGDAWRLYEYITRHFIATVSHDCKYLQSTISFRIGPELFTCSGKTVLSPGFTEVMPWQSVPLEESLPTCQRGDAFPVGEVKMLEKQTNPPDYLTEAELITLMEKHGIGTDASIPVHINNICQRNYVTVESGRRLKPTNLGIVLVHGYYKIDAELVLPTIRSAVEKQLNLIAQGKADYRQVLGHTLDVFKRKFHYFVDSIAGMDELMEVSFSPLAATGKPLSRCGKCHRFMKYIQAKPSRLHCSHCDETYTLPQNGTIKLYKELRCPLDDFELVLWSSGSRGKSYPLCPYCYNHPPFRDMKKGMGCNECTHPSCQHSLSMLGIGQCVECESGVLVLDPTSGPKWKVACNKCNVVAHCFENAHRVRVSADTCSVCEAALLDVDFNKAKSPLPGDETQHMGCVFCDPVFQELVELKHAASCHPMHRGGPGRRQGRGRGRARRPPGKPNPRRPKDKMSALAAYFV
# partner: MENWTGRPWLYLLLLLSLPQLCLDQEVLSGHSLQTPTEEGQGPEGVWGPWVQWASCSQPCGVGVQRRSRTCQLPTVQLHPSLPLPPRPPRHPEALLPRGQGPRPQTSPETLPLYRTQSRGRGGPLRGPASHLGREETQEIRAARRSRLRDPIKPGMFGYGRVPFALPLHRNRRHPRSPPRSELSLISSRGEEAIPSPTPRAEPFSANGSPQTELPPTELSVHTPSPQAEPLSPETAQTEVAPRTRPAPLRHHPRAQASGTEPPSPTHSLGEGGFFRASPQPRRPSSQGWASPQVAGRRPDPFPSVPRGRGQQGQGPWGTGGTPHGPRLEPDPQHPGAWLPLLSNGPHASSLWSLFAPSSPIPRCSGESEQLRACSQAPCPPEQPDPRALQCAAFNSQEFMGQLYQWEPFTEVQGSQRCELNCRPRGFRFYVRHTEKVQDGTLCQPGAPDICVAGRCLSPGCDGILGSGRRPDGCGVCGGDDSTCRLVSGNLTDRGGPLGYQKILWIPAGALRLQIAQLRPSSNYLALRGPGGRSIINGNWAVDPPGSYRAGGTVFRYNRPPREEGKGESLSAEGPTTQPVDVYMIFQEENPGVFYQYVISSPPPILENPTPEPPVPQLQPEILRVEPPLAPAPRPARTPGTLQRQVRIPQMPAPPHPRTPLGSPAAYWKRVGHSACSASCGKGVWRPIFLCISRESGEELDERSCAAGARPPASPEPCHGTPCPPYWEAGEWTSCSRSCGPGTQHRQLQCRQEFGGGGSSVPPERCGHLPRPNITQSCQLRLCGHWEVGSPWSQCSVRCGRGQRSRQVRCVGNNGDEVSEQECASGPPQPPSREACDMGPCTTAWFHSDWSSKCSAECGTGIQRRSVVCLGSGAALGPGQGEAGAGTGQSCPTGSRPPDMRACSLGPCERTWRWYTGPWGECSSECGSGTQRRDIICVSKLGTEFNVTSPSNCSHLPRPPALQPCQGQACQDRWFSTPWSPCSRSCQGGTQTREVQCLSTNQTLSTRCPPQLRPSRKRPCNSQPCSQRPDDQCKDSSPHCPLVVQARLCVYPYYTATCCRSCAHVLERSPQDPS
# B3: Notch homolog 2 N-terminal-like protein A (Homo sapiens), Q7Z3S9 (parent)
# chain: MCVTYHNGTGYCKCPEGFLGEYCQHRDPCEKNRCQNGGTCVAQAMLGKATCRCASGFTGEDCQYSTSHPCFVSRPCLNGGTCHMLSRDTYECTCQVGFTGKECQWTDACLSHPCANGSTCTTVANQFSCKCLTGFTGQKCETDVNECDIPGHCQHGGTCLNLPGSYQCQCLQGFTGQYCDSLYVPCAPSPCVNGGTCRQTGDFTFECNCLPETVRRGTELWERDREVWNGKEHDEN
# partner: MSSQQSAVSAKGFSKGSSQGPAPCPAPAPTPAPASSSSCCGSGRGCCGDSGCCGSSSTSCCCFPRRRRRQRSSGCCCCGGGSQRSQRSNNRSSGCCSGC
# B4: Rhophilin-1 (Homo sapiens), Q8TCX5 (parent)
# chain: MILEERPDGAGAGEESPRLQGCDSLTQIQCGQLQSRRAQIHQQIDKELQMRTGAENLYRATSNNRVRETVALELSYVNSNLQLLKEELEELSGGVDPGRHGSEAVTVPMIPLGLKETKELDWSTPLKELISVHFGEDGASYEAEIRELEALRQAMRTPSRNESGLELLTAYYNQLCFLDARFLTPARSLGLFFHWYDSLTGVPAQQRALAFEKGSVLFNIGALHTQIGARQDRSCTEGARRAMEAFQRAAGAFSLLRENFSHAPSPDMSAASLCALEQLMMAQAQECVFEGLSPPASMAPQDCLAQLRLAQEAAQVAAEYRLVHRTMAQPPVHDYVPVSWTALVHVKAEYFRSLAHYHVAMALCDGSPATEGELPTHEQVFLQPPTSSKPRGPVLPQELEERRQLGKAHLKRAILGQEEALRLHALCRVLREVDLLRAVISQTLQRSLAKYAELDREDDFCEAAEAPDIQPKTHQKPEARMPRLSQGKGPDIFHRLGPLSVFSAKNRWRLVGPVHLTRGEGGFGLTLRGDSPVLIAAVIPGSQAAAAGLKEGDYIVSVNGQPCRWWRHAEVVTELKAAGEAGASLQVVSLLPSSRLPSLGDRRPVLLGPRGLLRSQREHGCKTPASTWASPRPLLNWSRKAQQGKTGGCPQPCAPVKPAPPSSLKHPGWP
# B5: Ubl carboxyl-terminal hydrolase 18 (Homo sapiens), Q9UMW8 (parent)
# chain: MSKAFGLLRQICQSILAESSQSPADLEEKKEEDSNMKREQPRERPRAWDYPHGLVGLHNIGQTCCLNSLIQVFVMNVDFTRILKRITVPRGADEQRRSVPFQMLLLLEKMQDSRQKAVRPLELAYCLQKCNVPLFVQHDAAQLYLKLWNLIKDQITDVHLVERLQALYTIRVKDSLICVDCAMESSRNSSMLTLPLSLFDVDSKPLKTLEDALHCFFQPRELSSKSKCFCENCGKKTRGKQVLKLTHLPQTLTIHLMRFSIRNSQTRKICHSLYFPQSLDFSQILPMKRESCDAEEQSGGQYELFAVIAHVGMADSGHYCVYIRNAVDGKWFCFNDSNICLVSWEDIQCTYGNPNYHWQETAYLLVYMKMEC
# Variants of: B1
# Details: with FBP1, P09467
# Sequence of FBP1, P09467 (P09467 whole entry): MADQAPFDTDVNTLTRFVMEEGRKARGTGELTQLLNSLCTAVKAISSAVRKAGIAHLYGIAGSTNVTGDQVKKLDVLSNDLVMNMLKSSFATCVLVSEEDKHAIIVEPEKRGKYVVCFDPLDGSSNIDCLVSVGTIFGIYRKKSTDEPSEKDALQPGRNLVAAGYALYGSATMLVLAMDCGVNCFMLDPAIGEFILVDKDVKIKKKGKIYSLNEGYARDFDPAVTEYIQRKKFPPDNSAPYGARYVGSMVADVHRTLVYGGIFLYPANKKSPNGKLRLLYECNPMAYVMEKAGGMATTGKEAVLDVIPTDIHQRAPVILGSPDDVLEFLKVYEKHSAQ
row,Variant,effect of a mutation on the interaction
1,Y216C,with no effect

# Variants of: B2
# Details: with atl4_human ADAMTSL4, Q6UY14
row,Variant,effect of a mutation on the interaction
1,R267W,disrupting interaction strength

# Variants of: B3
# Details: with crct1_human CRCT1, Q9UGL9
row,Variant,effect of a mutation on the interaction
1,A115T,with no effect
2,R74Q,with no effect

# Variants of: B4
# Details: with mtus2_human MTUS2, Q5JR59
# Sequence of mtus2_human MTUS2, Q5JR59 (Q5JR59 whole entry): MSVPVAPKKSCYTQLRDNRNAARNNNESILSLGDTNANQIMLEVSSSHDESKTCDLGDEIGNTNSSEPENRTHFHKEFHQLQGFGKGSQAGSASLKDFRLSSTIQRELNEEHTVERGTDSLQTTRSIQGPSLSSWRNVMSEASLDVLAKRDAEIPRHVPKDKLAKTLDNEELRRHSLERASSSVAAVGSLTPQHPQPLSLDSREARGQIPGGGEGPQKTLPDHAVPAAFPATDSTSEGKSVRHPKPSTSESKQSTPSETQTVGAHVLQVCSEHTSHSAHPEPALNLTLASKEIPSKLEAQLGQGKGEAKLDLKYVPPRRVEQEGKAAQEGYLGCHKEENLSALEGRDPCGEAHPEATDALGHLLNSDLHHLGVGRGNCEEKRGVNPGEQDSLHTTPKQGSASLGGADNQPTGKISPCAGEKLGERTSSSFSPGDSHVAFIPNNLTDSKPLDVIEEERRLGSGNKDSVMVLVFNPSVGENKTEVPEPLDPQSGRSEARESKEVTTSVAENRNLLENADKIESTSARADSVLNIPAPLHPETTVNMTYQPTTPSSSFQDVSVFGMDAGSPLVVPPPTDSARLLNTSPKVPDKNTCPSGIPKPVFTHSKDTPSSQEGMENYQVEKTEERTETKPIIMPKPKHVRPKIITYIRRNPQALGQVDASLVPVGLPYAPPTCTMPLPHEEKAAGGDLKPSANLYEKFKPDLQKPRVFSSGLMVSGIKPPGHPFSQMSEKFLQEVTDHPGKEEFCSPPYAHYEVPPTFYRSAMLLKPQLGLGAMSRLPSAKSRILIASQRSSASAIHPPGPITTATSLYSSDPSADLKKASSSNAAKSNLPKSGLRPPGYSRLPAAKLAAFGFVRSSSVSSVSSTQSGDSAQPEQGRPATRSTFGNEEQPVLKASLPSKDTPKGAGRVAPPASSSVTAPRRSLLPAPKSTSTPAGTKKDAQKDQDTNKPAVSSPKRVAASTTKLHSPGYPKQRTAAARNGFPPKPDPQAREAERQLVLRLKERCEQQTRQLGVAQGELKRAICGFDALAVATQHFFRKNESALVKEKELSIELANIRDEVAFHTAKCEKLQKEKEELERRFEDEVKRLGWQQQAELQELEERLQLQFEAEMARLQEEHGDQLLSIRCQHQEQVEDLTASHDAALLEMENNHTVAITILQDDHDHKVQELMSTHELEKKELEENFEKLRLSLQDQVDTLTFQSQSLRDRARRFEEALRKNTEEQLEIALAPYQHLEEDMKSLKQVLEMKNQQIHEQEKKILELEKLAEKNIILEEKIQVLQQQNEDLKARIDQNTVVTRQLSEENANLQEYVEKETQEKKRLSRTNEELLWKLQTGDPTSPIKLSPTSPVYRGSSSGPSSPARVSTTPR
row,Variant,effect of a mutation on the interaction
1,A536T,with no effect

# Variants of: B5
# Details: with isg15_human ISG15, P05161
# Sequence of isg15_human ISG15, P05161 (P05161 whole entry): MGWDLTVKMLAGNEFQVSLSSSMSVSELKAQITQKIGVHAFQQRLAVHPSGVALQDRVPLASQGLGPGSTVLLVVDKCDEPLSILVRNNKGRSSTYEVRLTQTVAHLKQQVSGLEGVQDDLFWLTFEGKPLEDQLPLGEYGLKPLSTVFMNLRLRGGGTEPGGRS
row,Variant,effect of a mutation on the interaction
1,T169M,with no effect

# From IntAct's records for PubMed 31515488
